Measurements taken from patent publication US20230292718A1, “METHOD FOR CONSTRUCTING MODEL OF VITILIGO AND THE USE OF THE MODEL” (NATIONAL INSTITUTE OF BIOLOGICAL SCIENCES, BEIJING, priority 2020, published 2023).

B1: CCL19: recombinant chemokine protein added to lower chamber of transwell (protein, UniProt O70460 26-108, looked up)
C-C motif chemokine 19: GANDAEDCCLSVTQRPIPGNIVKAFRYLLNEDGCRVPAVVFTTLRGYQLCAPPDQPWVDRIIRRLKKSSAKNKGNSTRRSPVS
B2: CXCL10: recombinant chemokine protein added to lower chamber of transwell (protein, UniProt P17515 22-98, looked up)
C-X-C motif chemokine 10: IPLARTVRCNCIHIDDGPVRMRAIGKLEIIPASLSCPRVEIIATMKKNDEQRCLNPESKTIKNLMKAFSQKRSKRAP
B3: CXCL9: recombinant chemokine protein added to lower chamber of transwell (protein, UniProt P18340 22-126, looked up)
C-X-C motif chemokine 9: TLVIRNARCSCISTSRGTIHYKSLKDLKQFAPSPNCNKTEIIATLKNGDQTCLDPDSANVKKLMKEWEKKISQKKKQKRGKKHQKNMKNRKPKTPQSRRRSRKTT
B4: IFN-γ: recombinant interferon gamma used to treat fibroblasts in vitro (protein, UniProt P01580 23-155, looked up)
Interferon gamma: HGTVIESLESLNNYFNSSGIDVEEKSLFLDIWRNWQKDGDMKILQSQIISFYLRLFEVLKDNQAISNNISVIESHLITTFFSNSKAKKDAFMSIAKFEVNNPQVQRQAFNELIRVVHQLLPESSLRKRKRSRC

Experiments:
[1] = system: activated CD8+OT1 T cells; test: T cell transwell migration assay with recombinant chemokines; format: cell-based, mouse; conditions: recombinant protein at increasing concentrations in lower chamber, 3 hr incubation
Description: Transwell migration of lymphocytes was performed with mature CTLs and concentrated fibroblast conditioned medium. In brief, splenocytes isolated from OT-1 mice were stimulated with OVA257-264 for 3 days in the presence of 10 ng/mL IL2. Cells were centrifuged and cultured in fresh medium containing 10 ng/mL IL2 for 1 more day, after which most of the cells in the culture were CTLs. To measure CD8+ T cell cytotoxicity, B16F10 expressing OVA peptide was mixed in the killing medium at the ratios of 1:1. After 6 hs, the cytotoxic efficiency was confirmed by B16F10 cell survival.
To further identify the secreted factors involved in this process, we first performed RNA-seq analysis of fibroblasts from WT and IFNGR1 KO mice at Day 33 after vitiligo induction, alongside WT mice without vitiligo induction (FIG. 6C). […] Next we compared the single cell transcriptome data of progressive state vitiligo patients fibroblasts and healthy donors fibroblasts. Unsupervised clustering performed by spectral clustering method separates fibroblasts into 4 sub-clusters in healthy donors and 5 sub-clusters in progressive state vitiligo patients (FIG. 6D). […] Comparison of the human and mouse vitiligo fibroblasts specific secreted protein gene signatures, we identified 29 overlapped genes. Among them 11 are conserved major histocompatibility complex genes and 6 are chemokines, including CCL5, CCL8, CCL19, CXCL3, CXCL9 and CXCL10 (FIG. 6F-6G). […]
RFP expressing WT or IFNGR1 KO fibroblasts were intradermally injected into the tail skin of IFNGR1 KO mice. After vitiligo induction on the host mice, CD8+ T cell infiltration was analyzed by whole-mount immunofluorescent staining and quantification. […] Cells were collected from both chambers and counted by flow cytometry after 3 hr incubation. […] After 3 hr incubation, CD8+ T cell migration index was calculated by dividing the number of migrated cells (cells in lower chamber) using the number of migrated plus unmigrated cells (cells in upper chamber+lower chamber).

[2] = system: primary mouse fibroblasts; test: QPCR analysis of IFN-γ treated primary fibroblasts using target gene CXCL10 as readout; format: cell-based
Description: Total RNAs were isolated from FACS-sorted cells with Trizol followed by extraction using Direct-Zol RNA mini-prep Kit (Zymo research). For cDNA synthesis, equal amounts of RNA were reverse-transcribed by Oligo-dT (Vazyme, R222-01). Expression levels were normalized to the expression of PPIB. Real time PCR was conducted using a CFX96TM Real-Time system (Bio-RAD) with Power SYBRR Green PCR Master Mix (Life Technologies). All primer pairs were designed for the same cycling conditions: 10 min at 95° C. for initial denaturing, 40 cycles of 10 s at 95° C. for denaturing, 30 s at 62° C. for annealing, and 10 s at 65° C. for extension. The primers were designed to produce a product spanning exon-intron boundary in each of the target genes.
Primary fibroblasts isolated from WT or IFNGR1 KO newborn mice dorsal skin were infected with lentivirus expressing shRNA and RFP in vitro. The RFP+ fibroblasts were then intradermally injected into P56 mice tail skin. The presence and location of injected cells were examined 2 weeks later. […] Primary mouse fibroblasts were treated with IFN-γ of increasing dosage and duration time in vitro. Treatment time ranges from 6 hrs to 48 hrs; and IFN-γ concentration gradients range from 5 U/mL to 200 U/mL. […] Primary mouse fibroblasts were treated with increasing dosage of IFN-γ for 6 hrs in vitro. IFN-γ concentration gradients range from 5 U/mL to 1000 U/mL. […]

[3] = system: 3T3 fibroblasts; test: qPCR analysis of shRNA effect in blocking IFN-γ response (GBP2 reporter); format: cell-based, mouse; conditions: 6 hrs IFN-γ treatment, cells expressing scrambled shRNA

Molecule	CD8+ T cell migration (migration index) [1]	IFN-γ concentration inducing maximum activation (CXCL10 expression level) ([2]; 6 hrs in vitro, gradient 5 U/mL to 1000 U/mL) [U/mL]	CXCL10 expression ([2]; IFN-γ 5 U/mL to 200 U/mL, 6 hrs to 48 hrs)	GBP2 expression level [3]
B1	induce CD8+ T cell migration in a dosage dependent manner	–	–	–
B2	induce CD8+ T cell migration in a dosage dependent manner	–	–	–
B3	induce CD8+ T cell migration in a dosage dependent manner	–	–	–
B4	–	1000	induced by IFN-γ in a dosage dependent manner	significantly increased
